How the values were obtained:
[1] = molecular target: wild-type MC4R stably expressed in HEK293 cells (Homo sapiens, UniProt P32245); assay type: binding; details: 10 μM Ca2+; wild-type receptor; against 80 pM 125I-NDP-MSH
[2] = tested on: untransfected HEK293 cells (adenylyl cyclase); experiment: Forskolin cAMP concentration-response with or without Ca2+; assay type: cell-based, human; details: 0.5 mM CaCl2

wild-type MC4R stably expressed in HEK293 cells, sequence (P32245 whole entry): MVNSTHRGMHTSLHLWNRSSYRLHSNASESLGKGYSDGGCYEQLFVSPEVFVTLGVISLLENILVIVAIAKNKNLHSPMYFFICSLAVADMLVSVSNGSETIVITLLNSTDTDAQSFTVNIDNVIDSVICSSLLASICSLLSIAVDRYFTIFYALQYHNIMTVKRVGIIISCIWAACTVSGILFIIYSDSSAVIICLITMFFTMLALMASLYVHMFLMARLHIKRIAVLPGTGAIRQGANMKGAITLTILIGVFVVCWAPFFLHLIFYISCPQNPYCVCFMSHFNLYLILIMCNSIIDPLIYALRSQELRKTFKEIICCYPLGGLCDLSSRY

Compound	effect of Ca2+ on Ki [1]	Ca2+ dependence of non-receptor-mediated activation of adenylyl cyclase [2]
agouti-related protein (SSRRCVRLHESCLGQQVPCCDPCATCYCRFFNAFCYCRKLGTAMNPCSRT; UniProt O00253 83-132, looked up, fragment) [AgRP]	only marginally lowered	
C=C[C@@]1(C)CC(=O)[C@]2(O)[C@@]3(C)[C@@H](O)CCC(C)(C)[C@@H]3[C@H](O)[C@H](OC(C)=O)[C@@]2(C)O1 [forskolin]		no Ca^2+ dependence

Source: publication PMC7567314 (Science (New York, N.Y.), 2020)
